Residue numbers refer to the chain shown, from its start.

This is an account of results in article PMC12398788, “Molecular basis of the autoregulatory mechanism of motor neuron-related splicing factor 30”.

The target in one series is T1, SPF30 197-217 peptide (human, UniProt O75940 197-217).
T1 chain: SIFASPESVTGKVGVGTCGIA
As to the kind of experiment: EMSA; EMSA: 40 mM Tris-HCl pH 7.4, 30 mM KCl, 1 mM MgCl2, 0.01% IGEPAL CA-630, 25 °C 30 min, 20 fmol RNA in 12 µl; UV cross-linking: 50 mM Tris-HCl pH 7.4, 150 mM NaCl, 0.5% IGEPAL CA-630, 4 °C 4 h. To be noted: label: biotin; stem-loop predicted at intron 3/exon 4a/exon 4.

Another series has as its target T2, SPF30 ΔC1 (human, UniProt O75940 1-164).
T2 sequence: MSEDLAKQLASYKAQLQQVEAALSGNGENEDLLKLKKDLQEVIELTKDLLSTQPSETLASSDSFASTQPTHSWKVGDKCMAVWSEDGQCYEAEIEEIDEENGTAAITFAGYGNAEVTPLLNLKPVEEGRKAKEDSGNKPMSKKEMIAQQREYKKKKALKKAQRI
As to the kind of experiment: EMSA; 200 or 400 ng protein; EMSA: 40 mM Tris-HCl pH 7.4, 30 mM KCl, 1 mM MgCl2, 0.01% IGEPAL CA-630, 25 °C 30 min, 20 fmol RNA in 12 µl; UV cross-linking: 50 mM Tris-HCl pH 7.4, 150 mM NaCl, 0.5% IGEPAL CA-630, 4 °C 4 h. The settings on record: protein: recombinant; tags: N-terminal 6xHis; label: biotin; stem-loop predicted at intron 3/exon 4a/exon 4.

For a further series, the target named is T3, 6xHis-SPF30 WT (human, UniProt O75940 1-238).
T3 sequence: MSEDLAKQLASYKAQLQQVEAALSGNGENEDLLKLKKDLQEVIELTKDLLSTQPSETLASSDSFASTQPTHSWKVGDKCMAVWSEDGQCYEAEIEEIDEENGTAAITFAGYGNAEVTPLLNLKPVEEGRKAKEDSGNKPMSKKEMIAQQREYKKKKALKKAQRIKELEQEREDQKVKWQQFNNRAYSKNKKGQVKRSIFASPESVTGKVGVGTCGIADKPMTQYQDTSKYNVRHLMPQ
The series is described as above. To be noted: protein: recombinant; tags: N-terminal 6xHis (pCold I); C-terminal FLAG from primer KI-125; label: biotin; stem-loop predicted at intron 3/exon 4a/exon 4.

The target in another series is T4, SPF30 ΔC5 (human, UniProt O75940 1-217).
T4 sequence: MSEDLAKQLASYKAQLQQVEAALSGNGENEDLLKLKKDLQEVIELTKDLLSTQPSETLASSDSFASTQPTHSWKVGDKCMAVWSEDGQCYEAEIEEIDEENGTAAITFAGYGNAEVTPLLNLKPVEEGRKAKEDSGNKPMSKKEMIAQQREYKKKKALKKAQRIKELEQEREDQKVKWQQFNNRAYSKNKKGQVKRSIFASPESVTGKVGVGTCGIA
The series is described as above. To be noted: protein: recombinant; tags: N-terminal 6xHis; label: biotin; stem-loop predicted at intron 3/exon 4a/exon 4.

A further series concerns the target T5, SPF30 FSV3A (human, UniProt O75940 1-238, F199A;S201A;V209A).
T5 sequence: T3 sequence with F199A, S201A, V209A
As to the kind of experiment: EMSA; 200 or 400 ng protein; distinct mobility from WT; EMSA: 40 mM Tris-HCl pH 7.4, 30 mM KCl, 1 mM MgCl2, 0.01% IGEPAL CA-630, 25 °C 30 min, 20 fmol RNA in 12 µl; UV cross-linking: 50 mM Tris-HCl pH 7.4, 150 mM NaCl, 0.5% IGEPAL CA-630, 4 °C 4 h. To be noted: protein: recombinant; tags: N-terminal 6xHis; label: biotin; stem-loop predicted at intron 3/exon 4a/exon 4.

Consider CUGCUUACAGCCAUGAUAUCUUUACAGGUGUUAUGAAGCGG (ssRNA) [BT-RNA WT], for which the binding result in the series with SPF30 197-217 peptide was “no binding”; in the series with SPF30 ΔC1, “no binding”; with 6xHis-SPF30 WT, “binds”; with SPF30 ΔC5 it was “binds”; with SPF30 FSV3A, “binds”.
